Paper PMC5935693

Molecular target: XPO1 (human) (human) (UniProt O14980)
Assay: other fluorescence titration; competition differential bleaching: MBP-NES competes with the probe FITC-NESPKI for XPO1, in the presence of excess RanGTP (GSP1 179ter, Q71L); analysed in PALMIST

Chain of UniProt O14980 (O14980 whole entry): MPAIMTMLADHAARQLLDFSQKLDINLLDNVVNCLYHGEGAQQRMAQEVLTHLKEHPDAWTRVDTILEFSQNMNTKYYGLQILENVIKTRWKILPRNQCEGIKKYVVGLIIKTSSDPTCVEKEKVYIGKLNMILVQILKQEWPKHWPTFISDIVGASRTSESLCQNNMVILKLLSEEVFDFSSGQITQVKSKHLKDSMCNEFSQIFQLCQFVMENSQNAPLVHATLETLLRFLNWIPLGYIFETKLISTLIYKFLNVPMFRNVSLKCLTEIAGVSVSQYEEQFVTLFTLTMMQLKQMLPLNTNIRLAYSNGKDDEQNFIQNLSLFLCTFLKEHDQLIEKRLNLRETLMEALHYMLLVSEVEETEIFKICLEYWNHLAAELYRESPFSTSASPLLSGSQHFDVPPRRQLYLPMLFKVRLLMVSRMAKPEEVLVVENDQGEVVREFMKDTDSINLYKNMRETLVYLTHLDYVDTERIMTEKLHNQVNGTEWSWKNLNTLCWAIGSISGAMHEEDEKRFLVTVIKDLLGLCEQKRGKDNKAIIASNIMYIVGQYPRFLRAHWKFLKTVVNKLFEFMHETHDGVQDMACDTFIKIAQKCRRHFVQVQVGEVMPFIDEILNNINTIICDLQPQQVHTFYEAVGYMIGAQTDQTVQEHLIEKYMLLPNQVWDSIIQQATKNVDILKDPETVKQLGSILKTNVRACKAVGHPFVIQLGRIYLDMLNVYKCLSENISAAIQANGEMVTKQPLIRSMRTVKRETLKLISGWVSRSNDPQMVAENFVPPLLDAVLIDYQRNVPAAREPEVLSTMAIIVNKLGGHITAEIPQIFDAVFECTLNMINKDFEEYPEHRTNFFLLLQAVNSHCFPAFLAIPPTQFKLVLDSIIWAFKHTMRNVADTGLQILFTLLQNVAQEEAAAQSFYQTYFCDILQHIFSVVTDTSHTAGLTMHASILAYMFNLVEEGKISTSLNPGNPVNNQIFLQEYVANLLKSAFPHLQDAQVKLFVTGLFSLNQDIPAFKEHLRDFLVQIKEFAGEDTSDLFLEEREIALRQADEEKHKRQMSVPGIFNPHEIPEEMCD

- Kd: 13 µM
Substance: MBP-NESTDP (maltose binding protein fused to the putative NES peptide of TDP-43, residues 236-253)
